Assay results reported in publication PMC3094505.
Where two headings read alike, the source gives them in different places.

Legend:
[1] = molecular target: Fluoresceinated Nav1.2IQp, peptide of residues 1901-1927 of the Nav1.2 alpha-subunit; assay: fluorescence polarisation
[2] = molecular target: Fluoresceinated Nav1.2IQp, peptide of residues 1901-1927 of the Nav1.2 alpha-subunit; assay: fluorescence polarisation; remark: listed apart in the source

- Kd [1]: 1.64 µM
- Kd [2]: 70.8 µM
Substance: Paramecium calmodulin N-domain (residues 1-80) (from UniProt P07463 2-81) (domain or fragment)
